# Assay: soluble on expression in E. coli; label from the status in PepcDB or PDB records
row,Sequence,soluble on expression in E. coli
1,MSLKIAIVGSGNGAVTAAVDMVDKGHDVRLYCRNESISKFDVALEKGGFDFNNEGEEKFIEFTDISDDMEYVLDGADIVQVIIPSSFIEYYAKVMSKFVTNDHLIFFNIAASMGSIRFMNVLEDRHIDVHPHFAEANTLTYGTRVDFNNAKVDLSLNVRRVFFSTFDRSELNESYEKVSKIYDYLVKEESLLKTNLENGNPEVHPGPTLLNVGRIDYSEEFSLYKEGITKHTVRLLHAIEIERLNLGRKLGFELSTAKESRIQRGYLERKDEDEPLNRLFNTSPVFSQIPGPNHVENRYLTEDIAYGLVLWSSLGRVIDVPTPNIDAVIMIASTILERDFFEEGLTIEELGLDKLGLEEGHHHHHH,soluble
2,MTIHIDFLDETNEVTAEQIETIERLLAEAAALENVPDGAEVSVTFVDNERIRAMNRDYRGKDAPTDVLSFALEEEGEEEVHIVGADMPPVLGDIVISIPKAKEQAAAYGHSFMRELGFLAVHGFLHLLGYDHGTEEEERVMFAKQEDILARFGLTR,not soluble
3,MFSTVFVAGYGNSTEGHWQNSWCKITKNSYWVEQEDWNNPNCVDWIESLNALVQSIDGPILLVSHSLGGSTIVEWSKKYSANIIGAFMVAVPDVQCEHFPKEISGYQLPPLEKLPFPSMLLASTNDPYSTLDRSKYFVDIWGSDLTIVGDLKHVNADSNIGEWSYGLNLLNKFITSIDS,not soluble
4,SLLTALTADNQELFSLIDCSIDELTQIRSEQAFVCPMCHQSVILKAGPIKIPHFAHRKKNSCWYEAEAETEEHLRLKQLFAEKCLREKLSFQVEAYLPTLKQRPDLLIGKIAIEIQCSPLPIKRLVERTETYQTHGYQVVWILGERLVPKDKLTQLTKQFLYFSESLGFYLWSANKKQERIELLCHIEESQCQQFYRRKQSWDFYEKQLLEIFRLPTANLNLLPDRRHTGQLMHDYYQKLTQQLGYRNAQLLRTQSFLYTKGCHLLQLPPWFYYPGLKLIPSSEEDIHLKMLVWEALKTEEERLVTKQELWRILEAIFLEEGNFVWQPLPNIGLKKLFKIVGNNLLRWLQECYVLIKVNNKYLITSIFLREDPEKLIHWLKKVKKQHFFSHTC,soluble
5,MFLVVGQGNPGERYARTRHNLGFMVLDRLGLSFRPRGEALVAEAEGGLFLKPLTYYNLTGRAVAPLARFYKIPPERILVVHDEMDLPLGRIRFKAGGSAAGNRGVLSIEEALGTRAFHRLRLGIGKPPDPSRGAEYVLSPFREEELPVVERVLEAAKEAVWCWVREGLPPCAGRFNGLDLSLG,soluble
6,MADRDATLWASHEKMLSQPLKDSDAEVYSIIKKESNRQRVGLELIASENFASRAVLEALGSSLNNKYSEGYPGQRYYGGTEFIDELEMLCQKRALQAYHLDPQCWGVNVQPYSGSPANFAVYTALVEPHGRIMGLDLPDGGHLTHGFMTDKKKISATSIFFESMPYKVYPETGYINYDQLEENASLFHPKLIIAGTSCYSRNLDYARLRKIADDNGAYLMADMAHISGLVAAGVVPSPFEHCHVVTTTTHKTLRGCRAGMIFYRKGVRSVDPKTGKETYYELESLINSAVFPGLQGGPHNHAIAGVAVALKQAMTTEFKIYQLQVLANCRALSDALTELGYKIVTGGSDNHLILMDLRSKGTDGGRAEKVLEACSIACNKNTCPGDKSALRPSGLRLGTPALTSRGLLEEDFQKVAHFIHRGIELTLQIQSHMATKATLKEFKEKLAGDEKIQSAVATLREEVENFASNFSLPGLPDF,soluble
7,MVINQNEAHAIQRIDSDEEPTVSVVDVVATVATPHFDEPLKRKWRLKCAEYGTFMASLLDTDFAEHVTAHQVRCDGVRFKVKLRVEEAKGRSPRFEILAMSPEDSSGVQTLL,not soluble
8,MSLTGRAVIGVIGNAHLVDNRFAVQHVGERNLRAVAEVAGALPLMFGGSSEFAQIEDLLEVVDGILLTGGRANVHPTYFKTAPNPRHEPYDQPRDELALALVRTCVERGVPLFGICRGFQEMNVAYGGSLHPEIRELPGRMNHRMPRLENGEIHPDPTVVFADRHDVQLTSDGVFARLLGRDLIRVNSLHGQGILEPGPRIVIEGVAEDGTIEAIRIADAPGFALGVQWHAEYDPQVNPINRALFVAFGEAVSAYRTARKRPAALRRSEGHHHHHH,soluble
9,MRGSHHHHHHTDPALRAQDAAPRLTFTLRDEERLMMKIGVFVPIGNNGWLISTHAPQYMPTFELNKAIVQKAEHYHFDFALSMIKLRGFGGKTEFWDHNLESFTLMAGLAAVTSRIQIYATAATLTLPPAIVARMAATIDSISGGRFGVNLVTGWQKPEYEQMGIWPGDDYFSRRYDYLTEYVQVLRDLWGTGKSDFKGDFFTMNDCRVSPQPSVPMKVICAGQSDAGMAFSARYADFNFCFGKGVNTPTAFAPTAARMKQAAEQTGRDVGSYVLFMVIADETDDAARAKWEHYKAGADEEALSWLTEQSQKDTRSGTDTNVRQMADPTSAVNINMGTLVGSYASVARMLDEVASVPGAEGVLLTFDDFLSGIETFGERIQPLMQCRAHLPALTQEVAGLCGR,soluble
10,MTELDQFWPACLARLEAELSSQQFNTWIKPLTAEAGDEGIALFAPNRFIMQFIKDRFLPRIEELAVELVGELPVELRLGAPTARPAAPVAGNSQPKAKEPAKAAASAPAAPSPAKQAAVKAIGGSHESTRLNPSFTFDTLVTGKGNQLARAAAMQIAENPGDQAYNPLFVYGGVGLGKTHLIQAIGNHVFQKNPQAKIRYIHAERYVADIMRAYQHKAFDEFKRYYHSLDLLLIDDIQFFAGKNRTQEEFFYAFNALIEGGKQVIMTCDSYPKQIEGMEERLISRFSWGLTVEIQPPELEMRVAILMKKAEADSIKLEHNVAFFIAQNVRSNVRELEGALKRVVAYARFTSQNITLELVKEALKDILAAGNRQVTVDAIQKTVAEYYKIKLSDMHSKKRSRDIARPRQVAMALAKELTQLSLPNIGDAFGGRDHTTVLHACKTITEMRASDADIAHDYEALLSMLRNLEHHHHHH,not soluble
11,MPLENVMTDLKASSLRALKLMDLTTLNDDDTNEKVIALCHQAKTPVGNTAAICIYPRFIPIARKTLKEQGTPDIRIATVTNFPHGNDDIDIALAETRAAIAYGADEVDVVFPYRALIAGNEQVGFDLVKACKDACAAANVLLKVIIETGELKEEALIRKASEISIKAGADFIKTSTGKVPVNATPESARIMMEVIRDMGVSKTVGFKPAGGVRTAEDAQKFLAIADELFGADWADSRHYRFGASSLLASLLKALGHGDGKSASSY,not soluble
12,MVRVAVIGGSGVYDFPAENKRELTVETPYGKVNLTIGHVAGEEVAFLARHGKGHSVPPHKVNYRANIWALHELGVERIVATSAVGSLNPNMRPGDFVILDQLIDFTVSRPRTFYDGEESPHDRKFVAHVDFTEPYCPEIRRALITAAKDLSLPYHPKGTYVCTEGPRFETAAEIRAYRILGGDVVGMTQCPEAALARELEMCYATVAIVTNYAAGISGKKLTHAEVVELMNKKTREITALITKAIPLIPKERNCPCKDALKGATG,soluble
13,MKIYTRTGDAGETGLYGAERVVKAHPRVEAYGTVDEANSAIGLARSLLPGKHRDLHDLLERLQNALFDLGADLATRMGSPYEKNIARMDAEDVRALEEAIDRYQEESPPFQGFILPGGHPAAAALHLARTVVRRAERKAVALSREEPVNPEVIRYLNRLSDLLFVLARVVNAREGIKEEGWLVKKRR,soluble
14,MESYLRLSEVDKQILHSHALMLDGLGNFFGSTHEVILHSLENLESSAIKVINGHFSNRKEGAPITDMALKMLSQVESEHDYAVKPYYNKNQKGVILKSSTIPVIGENDRIIGLICINMHLEMPLIDYLQDLLPSGQQNDMSQELKNSEHFSDNIDELITTSLTKVKQAVESDPNVSHLNQNKEIVIRLYDQGIFNLKDSVIKIADRLGISKNTIYLHIRNHKKEEA,not soluble
15,MQEQLEKMFFLSAEFVEAVDARGMTEREKNVFFDTELFCKRYVKEVRPGEIGCTLSHQKCYRKLVESRDKYALILEDDIVIRHNIDTLVPEIEKLLNTDEPRVILLSGWYWYLGTKTIKQHYCLARVYDAFLTHAYIINREAASLLIEQRPFITADDWFYIRKKGVKLYAVLPHLLDQDWSGEYPTSINQEEKKRCPGLWKRKIEICFHSLLLKFLYIIKRFEKALEHHHHHH,not soluble
16,SEQTEVMKPETLEDLIKTLHQIFQSDSINVEEVQNLMESYQSNPQDWMKFAKFDQYRYTRNLVDEGNGKFNLMILCWGEGHGSSIHDHTDSHCFLKLLQGQLKETLFDWPDRKLQSGMKPRGQSVLQENQCAYINDSLGLHRVENVSHTEPAVSLHLYSPPFQSCRTFDQRTGHHNTVKMTFWSKYGERTPYELSVSQENN,soluble
17,MVSKIIKLGVPTATLAVGTLLLGDDEKRSAFFRTASAFTQNHGHKTFDEHFPRGEWDKNWDFRDPISLVDKGKWEKADEEGKKKLIEEKKATATRNIFLIRHGQYHLDHEVKMLTPLGREQAELLGKRLANSDIKFTNMTMSTMVRATETANIILKHLPDDLTRTSSPFIEEGPPYPPVPDHKTWRPLDPEFYTEAARIESAYRKIFHRASPSQKEDSFELIVCHANVIRYFICRALQFPPEGWLRMSLGNCSLTWITIRPKGHVSVRSIGDIGHLPPNKISFT,not soluble
18,MGTKLSVSLEGASTPETAPRVDRPPTFDPQYGFERPRKVREMKATWEEMEQWKLKPAQRDYCAHHLISLMKCQTQNAPFAGHACDGERGAWDKCEYDDHIMRIKEFERERRLLQRQARKEATA,not soluble
19,KPEWMMIHRILNHSVDKKGHVHYLIKWRDLPYDQASWESEDVEIQDYDLFKQSYWNH,soluble
20,STSTNNELTVSMMGTSTKEEVVSKVDEEDDDSSSDSDMDYGSDSEWAGYNVLAETEPEWDVDSFDGHEFKINPRVRQMYRSQELYDKYYNNRLKAFENKGFLSDHLNGIYDVYLDEKMDGYNSTRDFMAELANVCVKKHNETKGNTLELVNVVRATERGAATWRLYITFMAREFPDGPLVEYQAKVIKFLGVKDPFPVLCRAAPKPGI,soluble
21,MAGDPMNNNSKNNSRNVVTMNQASQSYAAQESSKMCLFEPRVFSDTQDIADELKNRRATLVNLQRIDQVSAKRIIDFLSGTVYAIGGDIQRVGTDIFLCTPDNVEVAGSITDHIENMEQHYELEHHHHHH,not soluble
22,MHKSIAVFEVEGGNDKQFNGHRKDTLPIVDAIKEKGWHAEVVFYRPEWSEGLFEYVSQNFDGYISRVNPGNIPGGEKGYFDLLTKLSEAGLVGMSTPAEMMAYGAKDALVKLNDTDLVPSDTAAYYDVETFHNTFPTSLSYGERVLKQNRGSTGSGIWRVQLEDKELAASVAPGTALPLNTKLRCTEAVDNHTEIRELGEFMDFCDQYIVGDNGMLVDMRFMPRIVEGEIRILMVGPHPVFVVHKKPAAGGDNFSATLFSGAKYTYDKPEAWQELVDMFAAARPVIAEKLGGDNIPLIWTADFMLADGENGEDTYVLGEINCSCVGFTSELDMGIQELVAQEAVERVEKKHA,not soluble
23,AWVDQTPRSVTKETGESLTINCALKNAADDLERTDWYRTTLGSTNEQKISIGGRYVETVNKGSKSFSLRIRDLRVEDSGTYKCGAYFSDAMSNYSYPIPGEKGAGTVLTVKAA,soluble
24,GPGSMMEPTRNAEYSKQEYWDRRYTEEEHYDWFPSVYPMCVAAAFETVEAVYRVQRSTGAFNGTLKVLHLGTGNSTLCADIRATYEAKYPTEDSRPYRLVQAATDYSAVVIDRMQAKYGLAHPLEDVHWVVADIRDLSRVREQFGPFFDVVLDKGTMDALQADKANQNMEDDIERMLCEVSRCVEGGAGTRVYRVFVQITWEIPYLRLYYTTRNATHTFAWGTNVTYRFLGESDMYRVYTYEVSPPSSE,soluble

# From the DeepSol protein solubility set
